From publication PMC9688318, “Construction of a Versatile, Programmable RNA-Binding Protein Using Designer PPR Proteins and Its Application for Splicing Control in Mammalian Cells” come the findings set out here.

Data set [1] concerns the target T1, PPR2.0 t8 (synthetic).
T1 chain: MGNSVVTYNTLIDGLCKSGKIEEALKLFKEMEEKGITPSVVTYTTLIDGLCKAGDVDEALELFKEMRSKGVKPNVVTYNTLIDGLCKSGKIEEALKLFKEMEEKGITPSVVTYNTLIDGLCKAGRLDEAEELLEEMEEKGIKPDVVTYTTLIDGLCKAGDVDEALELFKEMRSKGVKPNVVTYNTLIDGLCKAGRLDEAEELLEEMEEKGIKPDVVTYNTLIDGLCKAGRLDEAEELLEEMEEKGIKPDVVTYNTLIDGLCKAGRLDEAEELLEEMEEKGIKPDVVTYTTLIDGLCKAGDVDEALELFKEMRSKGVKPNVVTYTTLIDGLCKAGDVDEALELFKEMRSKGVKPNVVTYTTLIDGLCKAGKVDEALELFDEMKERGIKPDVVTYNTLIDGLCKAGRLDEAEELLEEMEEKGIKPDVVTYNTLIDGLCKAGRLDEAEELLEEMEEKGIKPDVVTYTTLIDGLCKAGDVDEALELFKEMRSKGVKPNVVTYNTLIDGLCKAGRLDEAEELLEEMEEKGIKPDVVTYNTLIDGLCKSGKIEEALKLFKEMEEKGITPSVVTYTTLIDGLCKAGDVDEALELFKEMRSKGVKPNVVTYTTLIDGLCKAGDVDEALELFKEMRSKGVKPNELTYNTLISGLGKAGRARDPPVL
Description: 20 mM Tris-HCl pH 8.0, 150 mM NaCl, 0.5% NP-40, 1 mM DTT. Conditions: tags: N-terminal NanoLuc, C-terminal His6, kept; label: biotin.

The target of data set [2] is T1, PPR2.0 t8. The experiment in a line: EMSA; 20 mM Tris-HCl pH 8.0, 150 mM NaCl, 0.5% NP-40, 1 mM DTT, 1 mM EDTA; 20 nM RNA. Conditions: tags: N-terminal SBP, C-terminal His6, kept; label: biotin. In general terms: A gel shift assay detects complexes by their altered migration in electrophoresis.
Data set [3] has as its target T2, PPR2.0 t14 (synthetic).
T2 chain: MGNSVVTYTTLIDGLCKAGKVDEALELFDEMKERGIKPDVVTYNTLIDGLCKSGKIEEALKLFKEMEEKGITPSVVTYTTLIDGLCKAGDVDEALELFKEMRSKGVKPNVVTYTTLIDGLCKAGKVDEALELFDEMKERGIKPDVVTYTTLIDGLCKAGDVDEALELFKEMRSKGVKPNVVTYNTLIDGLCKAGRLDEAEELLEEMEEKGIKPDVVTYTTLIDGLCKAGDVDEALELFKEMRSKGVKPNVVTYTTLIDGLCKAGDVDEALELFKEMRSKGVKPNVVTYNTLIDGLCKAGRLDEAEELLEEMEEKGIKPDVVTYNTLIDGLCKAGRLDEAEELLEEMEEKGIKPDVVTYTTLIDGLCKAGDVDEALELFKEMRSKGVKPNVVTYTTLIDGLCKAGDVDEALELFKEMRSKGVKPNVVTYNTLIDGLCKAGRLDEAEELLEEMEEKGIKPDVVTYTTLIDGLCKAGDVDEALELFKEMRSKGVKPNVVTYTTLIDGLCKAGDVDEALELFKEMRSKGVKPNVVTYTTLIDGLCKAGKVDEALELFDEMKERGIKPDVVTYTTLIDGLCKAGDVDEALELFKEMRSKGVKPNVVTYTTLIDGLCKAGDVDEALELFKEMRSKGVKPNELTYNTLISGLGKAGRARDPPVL
The experiment in a line: 20 mM Tris-HCl pH 8.0, 150 mM NaCl, 0.5% NP-40, 1 mM DTT. Conditions: tags: N-terminal NanoLuc, C-terminal His6, kept; label: biotin.

In data set [4] the target is T2, PPR2.0 t14. The experiment in a line: EMSA; 20 mM Tris-HCl pH 8.0, 150 mM NaCl, 0.5% NP-40, 1 mM DTT, 1 mM EDTA; 20 nM RNA. Conditions: tags: N-terminal SBP, C-terminal His6, kept; label: biotin.
Data set [5] concerns the target T3, PPR2.0 t5 (synthetic).
T3 chain: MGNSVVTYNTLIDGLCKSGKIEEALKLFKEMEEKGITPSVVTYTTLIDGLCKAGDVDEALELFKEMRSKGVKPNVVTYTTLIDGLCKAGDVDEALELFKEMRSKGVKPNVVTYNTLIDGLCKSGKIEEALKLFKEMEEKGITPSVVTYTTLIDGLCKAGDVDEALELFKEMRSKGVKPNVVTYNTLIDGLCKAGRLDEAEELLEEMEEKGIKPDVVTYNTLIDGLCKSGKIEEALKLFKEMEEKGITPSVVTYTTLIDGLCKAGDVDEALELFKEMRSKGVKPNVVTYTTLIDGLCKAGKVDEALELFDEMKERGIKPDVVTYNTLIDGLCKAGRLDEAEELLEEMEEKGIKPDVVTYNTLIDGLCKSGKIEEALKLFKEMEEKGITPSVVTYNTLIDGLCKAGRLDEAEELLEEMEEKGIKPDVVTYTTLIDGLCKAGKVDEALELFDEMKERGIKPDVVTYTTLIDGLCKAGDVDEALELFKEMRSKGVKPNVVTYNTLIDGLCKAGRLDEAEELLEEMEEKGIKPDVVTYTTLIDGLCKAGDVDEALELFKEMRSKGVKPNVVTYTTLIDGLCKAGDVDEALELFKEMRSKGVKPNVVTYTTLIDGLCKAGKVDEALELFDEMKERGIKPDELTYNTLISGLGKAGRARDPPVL
Description: 20 mM Tris-HCl pH 8.0, 150 mM NaCl, 0.5% NP-40, 1 mM DTT. Conditions: tags: N-terminal NanoLuc, C-terminal His6, kept; label: biotin.

Data set [6] deals with T3, PPR2.0 t5. The experiment in a line: EMSA; 20 mM Tris-HCl pH 8.0, 150 mM NaCl, 0.5% NP-40, 1 mM DTT, 1 mM EDTA; 20 nM RNA. Conditions: tags: N-terminal SBP, C-terminal His6, kept; label: biotin.
Data set [7] has as its target T4, PPR2.0 t4 (synthetic).
T4 chain: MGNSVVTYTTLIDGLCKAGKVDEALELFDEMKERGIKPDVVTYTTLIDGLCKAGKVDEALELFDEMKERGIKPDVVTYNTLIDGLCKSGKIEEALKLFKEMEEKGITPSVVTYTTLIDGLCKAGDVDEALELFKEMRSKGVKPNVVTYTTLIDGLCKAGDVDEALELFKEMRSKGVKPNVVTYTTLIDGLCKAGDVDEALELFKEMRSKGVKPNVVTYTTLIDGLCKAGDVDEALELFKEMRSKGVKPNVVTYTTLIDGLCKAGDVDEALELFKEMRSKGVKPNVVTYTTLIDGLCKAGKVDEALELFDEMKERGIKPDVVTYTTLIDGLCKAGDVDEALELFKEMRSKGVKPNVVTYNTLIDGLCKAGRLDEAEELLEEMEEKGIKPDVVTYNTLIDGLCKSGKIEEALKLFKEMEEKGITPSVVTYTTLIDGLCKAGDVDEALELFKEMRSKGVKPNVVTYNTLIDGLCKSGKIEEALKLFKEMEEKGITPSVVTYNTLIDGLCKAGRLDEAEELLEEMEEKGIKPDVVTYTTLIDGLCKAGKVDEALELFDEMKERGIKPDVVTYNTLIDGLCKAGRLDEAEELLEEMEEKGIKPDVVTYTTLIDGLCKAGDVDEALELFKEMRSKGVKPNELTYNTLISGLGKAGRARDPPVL
The experiment in a line: 20 mM Tris-HCl pH 8.0, 150 mM NaCl, 0.5% NP-40, 1 mM DTT. Conditions: tags: N-terminal NanoLuc, C-terminal His6, kept; label: biotin.

Data set [8] addresses T4, PPR2.0 t4. The experiment in a line: EMSA; 20 mM Tris-HCl pH 8.0, 150 mM NaCl, 0.5% NP-40, 1 mM DTT, 1 mM EDTA; 20 nM RNA. Conditions: tags: N-terminal SBP, C-terminal His6, kept; label: biotin.
Data set [9] concerns the target T5, PPR2.0 t15 (synthetic).
T5 chain: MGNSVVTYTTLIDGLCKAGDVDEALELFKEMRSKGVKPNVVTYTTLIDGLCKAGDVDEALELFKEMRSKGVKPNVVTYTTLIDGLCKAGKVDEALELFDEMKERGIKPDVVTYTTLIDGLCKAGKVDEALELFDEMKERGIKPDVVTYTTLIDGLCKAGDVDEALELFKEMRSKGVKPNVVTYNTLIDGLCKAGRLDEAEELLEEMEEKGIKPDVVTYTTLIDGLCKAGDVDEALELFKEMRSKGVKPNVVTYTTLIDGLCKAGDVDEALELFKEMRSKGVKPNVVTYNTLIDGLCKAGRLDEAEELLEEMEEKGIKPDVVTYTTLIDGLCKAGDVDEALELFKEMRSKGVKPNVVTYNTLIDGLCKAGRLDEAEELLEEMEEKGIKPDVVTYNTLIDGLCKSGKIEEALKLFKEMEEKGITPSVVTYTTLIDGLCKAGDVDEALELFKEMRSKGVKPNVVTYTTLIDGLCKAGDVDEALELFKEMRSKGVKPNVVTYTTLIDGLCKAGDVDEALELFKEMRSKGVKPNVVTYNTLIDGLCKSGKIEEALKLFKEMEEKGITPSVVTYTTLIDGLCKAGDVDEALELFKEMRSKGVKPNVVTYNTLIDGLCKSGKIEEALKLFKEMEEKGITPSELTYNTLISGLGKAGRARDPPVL
Description: 20 mM Tris-HCl pH 8.0, 150 mM NaCl, 0.5% NP-40, 1 mM DTT. Conditions: tags: N-terminal NanoLuc, C-terminal His6, kept; label: biotin.

The target in data set [10] is T5, PPR2.0 t15. Description: EMSA; 20 mM Tris-HCl pH 8.0, 150 mM NaCl, 0.5% NP-40, 1 mM DTT, 1 mM EDTA; 20 nM RNA. Conditions: tags: N-terminal SBP, C-terminal His6, kept; label: biotin.
The target in data set [11] is T6, PPR2.0 t11 (synthetic).
T6 chain: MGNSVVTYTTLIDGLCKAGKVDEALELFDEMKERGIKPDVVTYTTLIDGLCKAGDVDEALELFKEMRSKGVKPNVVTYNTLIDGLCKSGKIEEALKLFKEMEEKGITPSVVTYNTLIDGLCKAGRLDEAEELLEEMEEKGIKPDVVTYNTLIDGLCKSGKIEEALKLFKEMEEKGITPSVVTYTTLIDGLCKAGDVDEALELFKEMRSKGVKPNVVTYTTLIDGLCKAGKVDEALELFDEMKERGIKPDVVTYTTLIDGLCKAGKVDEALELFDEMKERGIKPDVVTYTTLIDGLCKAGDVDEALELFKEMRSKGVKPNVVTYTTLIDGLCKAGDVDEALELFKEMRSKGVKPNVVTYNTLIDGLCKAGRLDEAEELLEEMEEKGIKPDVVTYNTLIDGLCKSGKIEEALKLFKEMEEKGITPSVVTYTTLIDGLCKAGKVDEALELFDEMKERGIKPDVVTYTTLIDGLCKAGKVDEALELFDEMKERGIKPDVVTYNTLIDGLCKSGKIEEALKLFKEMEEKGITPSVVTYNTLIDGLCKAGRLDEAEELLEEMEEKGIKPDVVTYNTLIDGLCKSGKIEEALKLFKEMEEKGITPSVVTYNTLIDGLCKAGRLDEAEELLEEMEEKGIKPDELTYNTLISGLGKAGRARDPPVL
Description: 20 mM Tris-HCl pH 8.0, 150 mM NaCl, 0.5% NP-40, 1 mM DTT. Conditions: tags: N-terminal NanoLuc, C-terminal His6, kept; label: biotin.

Data set [12] deals with T6, PPR2.0 t11. The experiment in a line: EMSA; 20 mM Tris-HCl pH 8.0, 150 mM NaCl, 0.5% NP-40, 1 mM DTT, 1 mM EDTA; 20 nM RNA. Conditions: tags: N-terminal SBP, C-terminal His6, kept; label: biotin.

In the case of GACAUGCCACUAUUUAAGUUAUCAAGACUG (ssRNA) [Probe_t8], the binding signal with PPR2.0 t8 [1] is 4.7e+07 RBP-ELISA luminescence, CPS. Besides, binding in the data set with PPR2.0 t8 [2] was put at a Kd of 1.95 nM.

Consider GACAUGCGCAGAUAAUUAAUAAGAAGACUG (ssRNA) [Probe_t14], for which the binding signal with PPR2.0 t14 [3] is 1.33e+07 RBP-ELISA luminescence, CPS. In the data set with PPR2.0 t14 [4], this molecule returned a dissociation constant Kd of 197 nM.

For the molecule GACAUGCCAACAUCAGUCUGAUAAGGACUG (ssRNA) [Probe_t5], the binding signal in the data set with PPR2.0 t5 [5] was 1.67e+07 RBP-ELISA luminescence, CPS. The molecule also returned a dissociation constant (Kd) with PPR2.0 t5 [6] of 167 nM.

Regarding GACAUGCGGCAAAAAGAUCACUGUAGACUG (ssRNA) [Probe_t4], in the data set with PPR2.0 t4 [7], the binding signal was 5.98e+07 RBP-ELISA luminescence, CPS. The molecule also returned a Kd with PPR2.0 t4 [8] of 2.57 nM.

In the case of GACAUGCAAGGAUAAUAUCAAACACGACUG (ssRNA) [Probe_t15], the binding signal with PPR2.0 t15 [9] is 2.84e+07 RBP-ELISA luminescence, CPS. The Kd with PPR2.0 t15 [10] amounted to 41 nM.

GACAUGCGACUCAGGAAUCGGCUCUGACUG (ssRNA) [Probe_t11]: in the data set with PPR2.0 t11 [11], the binding signal was 3.78e+07 RBP-ELISA luminescence, CPS. The molecule further displayed a dissociation constant (Kd) in the data set with PPR2.0 t11 [12] of 63.3 nM.

As a reminder, the Kd is the equilibrium constant for the complex coming apart. Lower therefore signals tighter binding.
